For data set [1], the target named is T1, GLK2 (Arabidopsis thaliana, UniProt Q9FFH0 1-386).
T1 sequence: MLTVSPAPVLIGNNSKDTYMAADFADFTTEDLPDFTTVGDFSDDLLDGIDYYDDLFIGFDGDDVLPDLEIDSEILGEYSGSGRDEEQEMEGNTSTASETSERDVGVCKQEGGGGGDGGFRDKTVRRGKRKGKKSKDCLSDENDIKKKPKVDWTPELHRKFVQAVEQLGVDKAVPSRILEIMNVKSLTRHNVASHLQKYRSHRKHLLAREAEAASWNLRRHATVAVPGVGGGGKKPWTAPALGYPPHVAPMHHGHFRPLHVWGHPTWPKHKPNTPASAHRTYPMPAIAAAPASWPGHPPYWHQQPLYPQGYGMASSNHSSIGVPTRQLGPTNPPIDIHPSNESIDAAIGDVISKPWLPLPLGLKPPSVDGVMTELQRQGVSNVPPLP
Briefly: competition.

For data set [2], the target named is T1, GLK2. The experiment in a line: EMSA.

B1: pDFR-p1m (mpDFR-D-EMSA) (dsDNA)
DNA 1: ATACCAACACTAAAAAAAAAAAAAAAAAAACATAGAAGAAGAGAGCCAC
DNA 2: GTGGCTCTCTTCTTCTATGTTTTTTTTTTTTTTTTTTTAGTGTTGGTAT
On to B1, for which the binding result in data set [1] is reported as “no binding”.

B2: TTG1 probe (pTTG1-A-EMSA) (dsDNA)
DNA 1: TCTTTTTTGTCTTCTTATGTGATATCAAATTTTATGATCT
DNA 2: AGATCATAAAATTTGATATCACATAAGAAGACAAAAAAGA
On to B2, for which, in data set [2], the binding result is reported as “binds”.

B3: pTTG1m (mpTTG1-A-EMSA) (dsDNA)
DNA 1: TCTTTTTTGTCTTCTTATGTAAAAAAAAATTTTATGATCT
DNA 2: AGATCATAAAATTTTTTTTTACATAAGAAGACAAAAAAGA
On to B3, for which, in data set [2], the binding result is given as “no binding”.
